Bridges are numbered along the chain shown (N, C = ends). Where no end group is shown, it is not given here. [ ]: non-standard residue; d: D form. Cit = NC(=O)NCCC[C@H](N)C(=O)O; Nal = naphthylalanine
B1: TC14011 (peptide)
peptide: RRXCYXKXPYRXCR
modifications: Nal at 3; Cit at 6; D-Cit at 8; Cit at 12; C-terminal OH; Cys4-Cys13 disulfide (cyclised by air oxidation)
B2: TN14005 (peptide)
peptide: RRXCYRKXPYRXCR
modifications: Nal at 3; D-Cit at 8; Cit at 12; C-terminal amide (NH2); Cys4-Cys13 disulfide (cyclised by air oxidation)
B3: TC14012 (peptide)
peptide: RRXCYXKXPYRXCR
modifications: Nal at 3; L-citrulline at 6; D-citrulline at 8; L-citrulline at 12; C-terminal amide (NH2); Cys4-Cys13 disulfide (cyclised by air oxidation)
B4: TC14005 (peptide)
peptide: RRXCYRKXPYRXCR
modifications: not fully specified; Nal at 3; D-citrulline at 8; L-citrulline at 12; C-terminal OH; Cys4-Cys13 disulfide (cyclised by air oxidation)
B5: TC14018 (peptide)
peptide: XRXCYRKXPYRXCR
modifications: Cit at 1; Nal at 3; D-Cit at 8; Cit at 12; C-terminal amide (NH2); Cys4-Cys13 disulfide (cyclised by air oxidation)
B6: TC14020 (peptide)
peptide: RRXCYRKXPYXXCR
modifications: Nal at 3; D-Cit at 8; Cit at 11 and 12; C-terminal OH as printed; Cys4-Cys13 disulfide (cyclised by air oxidation)

biological target: CXCR4 ligand; assay: cell-based or functional assay

Going from B1 to B2, the “EC50 (nM): anti-HIV activity, concentration where MT-4 cell death by HIV-1 (IIIB) infection is inhibited by 50% (MTT method)” value rises from 0.5 nM to 4.6 nM (9.2-fold).

First: RR[Nal]CY[Cit]K[dK]PYR[Cit]CR-OH (disulfide 4-13) [TC14003]
Second: B3
The “EC50 (nM): anti-HIV activity, concentration where MT-4 cell death by HIV-1 (IIIB) infection is inhibited by 50% (MTT method)” value of the first is 7-fold higher: 2.8 nM for the first, 0.4 nM for the second.

First: B4
Second: B5
The “EC50 (nM): anti-HIV activity, concentration where MT-4 cell death by HIV-1 (IIIB) infection is inhibited by 50% (MTT method)” value of the first is 3.3-fold higher: 4 nM for the first, 1.2 nM for the second.

Compared with B6, RR[Nal]CY[Cit]K[dK]PYR[Cit]CR-NH2 (disulfide 4-13) [TN14003] is 4.5-fold lower in “EC50 (nM): anti-HIV activity, concentration where MT-4 cell death by HIV-1 (IIIB) infection is inhibited by 50% (MTT method)” value: 2.7 nM for the first, 0.6 nM for the second.
